The supplement of paper PMC9732359
± gives the uncertainty stated by the source.

Experiment: protein stability index of a GFP-peptide fusion (yeast GPS) (PSI 1-4); higher = more stable; sorted into four equal gates, so the index is relative within each strain
Outline: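 Tiled 17-residue peptides from yeast proteins were fused downstream of GFP on a plasmid that also expresses Cherry, and the pooled library was carried in yeast. Mid-log cultures grown in leucine-free medium were sorted into four equal gates by GFP/Cherry fluorescence ratio. Plasmids from each gate were PCR-amplified and Illumina-sequenced, and reads were assigned to strains by barcodes. Each peptide's protein stability index is the sum, over gates, of the gate's read frequency multiplied by its gate number.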

Sequence | protein stability index (doa10∆) | protein stability index (pdr5∆) | protein stability index (san1∆) | protein stability index (ubr1∆)
IDGSTSHEERIEAIDEY [ISW2] | 3.26 ± 0.079 | 3.26 ± 0.11 | 3.06 ± 0.091 | 3.32 ± 0.047
GASGVDDFQNFFDPKPF [SWI1] | 2.65 ± 0.065 | 2.68 ± 0.064 | 2.92 ± 0.092 | 3.11 ± 0.046
FAESPFFDKTSNNQVIK [MED6] | 3.49 ± 0.081 | 2.92 ± 0.096 | 2.71 ± 0.076 | 2.96 ± 0.069
FVIPILIKMSRSPPRPP [PRP28] | 2.04 ± 0.069 | 1.93 ± 0.065 | 2.01 ± 0.088 | 2.14 ± 0.073
QPSSSRYNGGNDNIGAN [SMB1] | 3.2 ± 0.091 | 3.49 ± 0.08 | 3.23 ± 0.049 | 3.37 ± 0.075
RNSLETKLTTCKRELAF [YIL149C/MLP2] | 2.09 ± 0.068 | 1.99 ± 0.077 | 1.88 ± 0.09 | 2.19 ± 0.053
KTTYYYYNEEGIHILLY [RPC82] | 1.9 ± 0.12 |  |  | 2.75 ± 0.05
LMRELLKMMKLIVDTHV [PRP8] | 1.9 ± 0.083 | 1.34 ± 0.06 | 2.29 ± 0.088 | 1.39 ± 0.06
LQAIQEKLNKTDENTPS [ITC1] | 3.12 ± 0.098 | 3.08 ± 0.061 | 2.98 ± 0.047 | 2.89 ± 0.043
TPKYRLVVRFTNKDIIC [RPL5] | 1.75 ± 0.078 | 1.64 ± 0.11 | 1.17 ± 0.2 | 1.36 ± 0.071
NIVMDSKQNGIEQSITK [SSN8] | 3.08 ± 0.16 | 2.59 ± 0.28 | 2.61 ± 0.18 | 3.15 ± 0.12
TQQQPGAPGANARMPGM [SRP54] | 3.1 ± 0.12 | 2.89 ± 0.096 | 2.89 ± 0.25 | 2.7 ± 0.084
SGEEKGKKVSGFKDEVL [RPS1B] | 3.4 ± 0.11 | 3.61 ± 0.14 | 3.48 ± 0.11 | 3.46 ± 0.083
LKQPPFQITLSSDDLQN [SSN8] | 2.23 ± 0.059 | 2.31 ± 0.077 | 2.34 ± 0.064 | 2.35 ± 0.085
DWIRFVSIRQNQYKLVF [RPL22B] | 1.37 ± 0.076 | 1.48 ± 0.041 | 1.26 ± 0.1 | 1.26 ± 0.055
LMDDMSDISDLDDLGFL [RPN3] | 1.77 ± 0.062 | 1.81 ± 0.059 | 1.92 ± 0.091 | 1.77 ± 0.04
TSASQPFKFGKTSEKSE [YOR098C/NUP1] | 3.1 ± 0.14 | 3.22 ± 0.15 | 2.96 ± 0.13 | 3.17 ± 0.093
DTKLKAHELQSEDVSRD [YIL149C/MLP2] | 2.77 ± 0.058 | 2.95 ± 0.055 | 3.03 ± 0.048 | 2.86 ± 0.047
PTAKDVEVIKQLSLDAS [GAL11] | 3.08 ± 0.13 | 2 ± 0.07 | 1.82 ± 0.1 | 2.28 ± 0.073
FQDVYDLTGSEPIKEII [FAS1] | 2.78 ± 0.25 | 3.02 ± 0.081 |  | 3.22 ± 0.1
ELIIDKVTCSSNSSSSP [MED1] | 2.72 ± 0.058 | 2.75 ± 0.065 | 2.79 ± 0.054 | 2.72 ± 0.048
NLPKEGDIVLTRVTRLS [CSL4] | 2.58 ± 0.13 |  | 2.48 ± 0.26 | 
VRRRFARGMTSKPAGFM [RPS15] | 2.9 ± 0.071 | 2.89 ± 0.077 | 2.94 ± 0.1 | 3.07 ± 0.075
LEYWCNPPYSQCIVYPN [SOH1] | 2.03 ± 0.048 | 2.27 ± 0.045 | 2.05 ± 0.054 | 2.13 ± 0.037
KRLADGLSVTQKVFVRS [DIS3] | 1.85 ± 0.077 | 2.38 ± 0.076 | 1.93 ± 0.12 | 1.93 ± 0.06
ATSTKVSVEGVNVEKFN [RPL6A] | 2.88 ± 0.11 | 3.4 ± 0.11 | 3.31 ± 0.059 | 3.16 ± 0.1

Sequence | protein stability index (doa10∆) | protein stability index (pdr5∆) | protein stability index (san1∆) | protein stability index (ubr1∆)
TSAHEAIRADPAFKPTE [RPL5] | 3.24 ± 0.15 | 3.17 ± 0.14 | 3.11 ± 0.089 | 3.33 ± 0.11
LNKLYGGAKSRGVRPYK [RPS19A] | 3.34 ± 0.14 | 3.3 ± 0.18 | 3.09 ± 0.061 | 
GGLNDPRLGSIDRNLKC [RPO21] | 3.35 ± 0.17 | 3.28 ± 0.11 | 3.32 ± 0.094 | 3.33 ± 0.086
SDEAIIPVNKRRGAHGS [SIR3] | 3.03 ± 0.15 | 3.13 ± 0.13 | 3.04 ± 0.13 | 2.93 ± 0.18
AALGMGLCMLGTGKPEA [RPN2] | 3.46 ± 0.13 | 3.32 ± 0.094 | 3.44 ± 0.066 | 3.36 ± 0.088
HETTFMTAMRLMLKKLK [YML031W/NDC1] | 1.21 ± 0.097 | 2.56 ± 0.094 | 2.42 ± 0.1 | 2.5 ± 0.069
FFSSDWRFLQILRNGID [POP1] | 2.29 ± 0.073 | 2.27 ± 0.088 | 2.5 ± 0.1 | 2.18 ± 0.072
KEKIQHELGINIDSLKF [BRR2] | 3.19 ± 0.065 | 3.07 ± 0.053 | 3.05 ± 0.043 | 3.22 ± 0.06
NGFMHAGTTDNSFIKAN [RPN2] | 1.24 ± 0.055 | 1.33 ± 0.045 | 1.35 ± 0.082 | 1.26 ± 0.051
YPKLTLDFQTNKRLCDE [RPS17A] | 3.11 ± 0.073 | 3.06 ± 0.064 | 3.06 ± 0.044 | 3.23 ± 0.059
VILQSDLEEAYATQVKT [RPT3] | 2.2 ± 0.1 | 2.57 ± 0.069 | 2.3 ± 0.083 | 2.53 ± 0.068
IYRYDEMSNKVLKVDKR [BRR2] | 2.97 ± 0.042 | 3.09 ± 0.051 | 2.96 ± 0.038 | 2.84 ± 0.047
PPDIHPNLGPQLWLNSS [GRR1] | 3.28 ± 0.089 | 3.36 ± 0.089 | 3.21 ± 0.066 | 3.14 ± 0.067
PQIVKLFDISREALSGR [ECM29] | 3.44 ± 0.15 | 3.26 ± 0.1 | 3.59 ± 0.081 | 2.95 ± 0.054
DEIATIQSKRLRNKIAG [RPS17A] | 3.15 ± 0.11 | 3.13 ± 0.099 | 3.33 ± 0.066 | 3.48 ± 0.14
KAGKITTIEEIFLHSLP [RPS2] | 2.8 ± 0.11 | 2.69 ± 0.12 | 2.52 ± 0.082 | 2.94 ± 0.066
LYHLVIMKFQSLSDNDL [ECM29] |  | 1.65 ± 0.25 |  | 3.28 ± 0.25
HLVELLLVFRNADLDLD [YDL116W/NUP84] | 3.17 ± 0.12 | 2.46 ± 0.098 | 2.17 ± 0.099 | 2.5 ± 0.13
VAHITTKSPAYPMMHQV [RGR1] | 1.79 ± 0.046 | 1.91 ± 0.054 | 1.85 ± 0.067 | 1.68 ± 0.068
SFFSGLSPPEFLFHAIS [RPO31] | 2.07 ± 0.044 | 1.9 ± 0.05 | 1.93 ± 0.11 | 1.91 ± 0.041
ETDEYISYTSHIEGVVI [RPN1] | 3.13 ± 0.1 | 3.44 ± 0.17 |  | 3.08 ± 0.08
KCKEVGITAVHVKIRAT [RPS14B] | 2.39 ± 0.063 | 1.64 ± 0.051 | 1.7 ± 0.1 | 2.19 ± 0.043
IASKMSLAPEADLDSLI [RPT3] | 2.62 ± 0.1 | 2.81 ± 0.13 | 2.1 ± 0.12 | 3.07 ± 0.19
TATGAASKSGKLTQKLV [CYT1] | 1.64 ± 0.092 | 1.62 ± 0.078 | 2.69 ± 0.11 | 1.83 ± 0.063
VIEMKRCFENLQNKSFK [UBP6] | 3.33 ± 0.15 | 3.28 ± 0.2 | 3.1 ± 0.16 | 3.13 ± 0.1
